# Reference: US20100196385A1 (AstraZeneca / MedImmune, published 2010)
# T1: human Dll1 (human, UniProt O00548 18-723)
# T1 construct: whole, on cells
# T1 sequence (looked up): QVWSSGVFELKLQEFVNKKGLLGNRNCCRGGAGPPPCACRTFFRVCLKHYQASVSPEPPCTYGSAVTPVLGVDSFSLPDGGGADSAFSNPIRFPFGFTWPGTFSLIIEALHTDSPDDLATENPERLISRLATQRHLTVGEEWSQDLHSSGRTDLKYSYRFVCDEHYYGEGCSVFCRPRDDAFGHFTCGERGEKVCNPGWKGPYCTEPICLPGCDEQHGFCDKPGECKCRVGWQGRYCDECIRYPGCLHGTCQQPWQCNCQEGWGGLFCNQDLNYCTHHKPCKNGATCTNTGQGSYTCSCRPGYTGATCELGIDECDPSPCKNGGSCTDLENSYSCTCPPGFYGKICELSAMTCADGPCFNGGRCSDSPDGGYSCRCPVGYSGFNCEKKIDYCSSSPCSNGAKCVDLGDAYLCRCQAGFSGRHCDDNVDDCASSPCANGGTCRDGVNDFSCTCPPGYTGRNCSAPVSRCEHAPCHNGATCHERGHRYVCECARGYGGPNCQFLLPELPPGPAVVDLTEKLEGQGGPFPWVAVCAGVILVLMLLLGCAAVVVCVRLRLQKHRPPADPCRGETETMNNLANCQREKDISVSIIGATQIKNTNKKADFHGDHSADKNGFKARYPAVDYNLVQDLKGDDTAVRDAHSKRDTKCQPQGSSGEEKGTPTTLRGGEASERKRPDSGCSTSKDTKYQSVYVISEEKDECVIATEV
# Tests used:
# [1] = molecular target: DLL4 extracellular domain (R&D systems, catalog #1506-D4/CF) (UniProt Q9NR61 27-529, limits assumed); experiment: cell-based or functional assay
# DLL4 extracellular domain (R&D systems, catalog #1506-D4/CF), sequence (Q9NR61 27-529 limits assumed): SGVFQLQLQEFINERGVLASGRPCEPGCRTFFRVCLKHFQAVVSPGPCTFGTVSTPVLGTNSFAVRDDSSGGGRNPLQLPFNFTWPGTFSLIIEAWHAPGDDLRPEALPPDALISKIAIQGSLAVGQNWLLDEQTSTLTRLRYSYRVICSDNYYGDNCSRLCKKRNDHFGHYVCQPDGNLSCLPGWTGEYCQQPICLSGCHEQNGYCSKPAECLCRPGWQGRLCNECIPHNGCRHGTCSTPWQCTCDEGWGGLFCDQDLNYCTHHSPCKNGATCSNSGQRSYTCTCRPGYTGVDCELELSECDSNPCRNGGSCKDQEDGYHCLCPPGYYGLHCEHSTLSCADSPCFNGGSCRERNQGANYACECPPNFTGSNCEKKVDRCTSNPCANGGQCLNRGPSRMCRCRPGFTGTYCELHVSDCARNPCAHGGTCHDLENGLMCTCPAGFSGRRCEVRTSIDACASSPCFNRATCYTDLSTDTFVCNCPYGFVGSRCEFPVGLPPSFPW
# human Jagged1 = molecular target: T2, human Jagged1 (human, UniProt P78504 34-1218); experiment: FACS, 5 µg/ml, 293T cells with human Jagged1
# T2 construct: whole, on cells
# T2 sequence (P78504 34-1218): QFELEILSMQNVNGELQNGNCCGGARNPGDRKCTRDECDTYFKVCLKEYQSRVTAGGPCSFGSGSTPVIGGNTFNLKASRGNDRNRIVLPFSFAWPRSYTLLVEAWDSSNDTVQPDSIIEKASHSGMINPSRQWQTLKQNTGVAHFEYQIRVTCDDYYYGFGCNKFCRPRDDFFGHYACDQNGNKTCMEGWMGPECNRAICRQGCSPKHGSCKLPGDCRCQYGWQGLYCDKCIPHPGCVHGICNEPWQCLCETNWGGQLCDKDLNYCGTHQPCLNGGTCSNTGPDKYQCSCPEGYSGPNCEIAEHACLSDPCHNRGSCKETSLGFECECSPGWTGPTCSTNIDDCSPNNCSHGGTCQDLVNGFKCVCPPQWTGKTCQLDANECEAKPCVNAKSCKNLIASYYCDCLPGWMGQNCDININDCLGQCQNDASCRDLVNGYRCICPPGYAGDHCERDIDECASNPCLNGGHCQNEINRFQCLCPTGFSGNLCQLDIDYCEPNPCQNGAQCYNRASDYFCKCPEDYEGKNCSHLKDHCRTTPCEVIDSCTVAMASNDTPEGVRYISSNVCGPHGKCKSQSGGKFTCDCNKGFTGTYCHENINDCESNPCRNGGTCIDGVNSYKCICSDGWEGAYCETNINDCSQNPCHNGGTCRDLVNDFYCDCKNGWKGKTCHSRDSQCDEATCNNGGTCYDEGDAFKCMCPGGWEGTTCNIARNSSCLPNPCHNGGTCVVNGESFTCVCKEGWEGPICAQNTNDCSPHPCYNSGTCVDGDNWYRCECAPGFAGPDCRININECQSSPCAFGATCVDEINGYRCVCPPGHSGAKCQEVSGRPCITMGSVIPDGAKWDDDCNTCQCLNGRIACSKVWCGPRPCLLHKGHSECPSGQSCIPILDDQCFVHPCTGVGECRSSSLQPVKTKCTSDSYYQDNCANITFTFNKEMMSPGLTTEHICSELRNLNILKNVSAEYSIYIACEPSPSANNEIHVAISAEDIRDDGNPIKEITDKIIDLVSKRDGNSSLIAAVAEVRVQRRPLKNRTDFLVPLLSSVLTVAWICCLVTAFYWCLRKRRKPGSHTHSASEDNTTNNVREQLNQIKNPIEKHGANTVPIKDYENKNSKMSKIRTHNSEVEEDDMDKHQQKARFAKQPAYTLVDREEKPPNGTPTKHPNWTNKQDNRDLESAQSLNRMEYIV
# Method in brief: (§1)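 First, cells were resuspended in PBS with 2% FCS at 50000 cells/well. Next, diluted purified anti-DLL4 antibodies were applied for 1 h at 4 °C. Finally, geometric mean fluorescence of target-transfected cells was compared with that of mock-transfected cells.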
# human Dll1 = molecular target: T1, human Dll1; experiment: FACS, 15 µg/ml, 293T cells with human Dll1 vs mock
# Method in brief: as §1
# [2] = molecular target: T3, human soluble DLL4 (R&D systems catalog #1056-D4-050) (human, UniProt Q9NR61 27-524); experiment: Biacore T100, antibody immobilised, soluble human DLL4 as analyte
# T3 construct: Catalog number as printed; perhaps the same product as #1506-D4; also called antigen DLL4
# T3 sequence (Q9NR61 27-524 limits assumed): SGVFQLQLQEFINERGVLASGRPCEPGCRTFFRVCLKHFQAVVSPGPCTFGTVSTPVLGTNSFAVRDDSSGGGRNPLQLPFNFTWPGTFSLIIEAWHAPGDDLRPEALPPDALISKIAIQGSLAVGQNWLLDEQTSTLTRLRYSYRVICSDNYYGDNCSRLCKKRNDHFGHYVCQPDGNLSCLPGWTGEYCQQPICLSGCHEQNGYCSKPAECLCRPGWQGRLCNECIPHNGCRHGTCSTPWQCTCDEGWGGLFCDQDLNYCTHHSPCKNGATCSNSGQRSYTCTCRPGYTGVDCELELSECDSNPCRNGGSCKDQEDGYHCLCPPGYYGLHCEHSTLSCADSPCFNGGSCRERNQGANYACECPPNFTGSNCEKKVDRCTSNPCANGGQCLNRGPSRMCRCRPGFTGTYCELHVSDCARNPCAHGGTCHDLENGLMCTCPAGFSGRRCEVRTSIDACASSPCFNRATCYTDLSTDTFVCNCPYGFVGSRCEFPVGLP
# Method in brief: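 Anti-DLL4 antibodies amine-coupled to CM5 chip (<200 RU). Soluble DLL4 injected from 32-64 nM in 3-fold dilutions, in triplicate, in HBS-P with 0.1 mg/ml BSA at 23° C. ka, kd and KD from a global 1:1 fit.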
# full length human DLL4 [3] = molecular target: T4, full length human DLL4 (human, UniProt Q9NR61 27-685); experiment: FMAT competition, purified antibody vs Alexa-647 human Notch1/Fc, 293T cells with human DLL4
# T4 construct: whole, on cells; also called native DLL4 expressed in HEK293 cells
# T4 sequence (Q9NR61 27-685): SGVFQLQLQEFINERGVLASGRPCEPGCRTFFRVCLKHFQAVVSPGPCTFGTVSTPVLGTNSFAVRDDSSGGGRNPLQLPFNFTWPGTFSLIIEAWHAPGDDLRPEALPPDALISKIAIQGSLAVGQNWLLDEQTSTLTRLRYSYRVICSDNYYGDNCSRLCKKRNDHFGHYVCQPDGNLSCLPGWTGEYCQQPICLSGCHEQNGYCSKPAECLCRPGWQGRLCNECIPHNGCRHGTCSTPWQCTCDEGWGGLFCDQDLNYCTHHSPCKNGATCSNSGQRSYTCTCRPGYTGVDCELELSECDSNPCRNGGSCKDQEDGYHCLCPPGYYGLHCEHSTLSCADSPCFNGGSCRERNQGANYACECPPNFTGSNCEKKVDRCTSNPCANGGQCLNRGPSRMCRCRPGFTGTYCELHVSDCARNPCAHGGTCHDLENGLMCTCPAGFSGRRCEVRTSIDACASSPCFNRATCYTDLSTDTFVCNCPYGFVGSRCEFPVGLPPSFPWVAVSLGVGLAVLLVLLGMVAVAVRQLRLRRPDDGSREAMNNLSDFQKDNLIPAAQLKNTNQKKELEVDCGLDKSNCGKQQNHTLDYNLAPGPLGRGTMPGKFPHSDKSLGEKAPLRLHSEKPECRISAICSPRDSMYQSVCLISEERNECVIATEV
# Method in brief: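 Blocking of Notch1/Fc binding to DLL4 was scored by FMAT fluorescence on DLL4-transfected 293T cells alongside untransfected cells. Antibodies, diluted serially from 5 μg/ml, were added for 1 h at 4 °C before Alexa-647 Notch1/Fc (100 ng/ml as added) for a further 3 h at 4 °C.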
# full length human DLL4 [4] = molecular target: T4, full length human DLL4; experiment: FMAT competition, supernatant vs Alexa-647 human Notch1/Fc, 293T cells with human DLL4
# Description: Transfected and untransfected 239T cells were reconstituted in PBS containing 2% FCS and 5000 transfected and 17500 non-transfected cells were plated in 20 μl into wells of a 384-well tissue culture plate (Corning Costar, catalog #3712). Subsequently, 20 μl of hybridoma supernatant was added and plates were incubated at 4° C. for 1 h, at which time 20 μl of Alexa-647 labeled human Notch1/Fc was added at a final concentration of 6.7 ng/ml. After a further 3 h incubation at 4° C., the amount of bound Notch1/Fc was determined by reading the fluorescence in each well using an FMAT 8200 instrument (Applied Biosystems). Results are expressed as % inhibitions with the minimum inhibition in the assay being determined by the effects of non-DLL4 binding supernatants prepared in a similar way as described in example 2, and the maximum inhibition being defined as the signal obtained in the presence of a saturating concentration of unlabeled Notch1/Fc. N.T.=not tested
Binder,"% inhibition 1 µg/ml, AVERAGE (HUVEC proliferation on coated DLL4) [1] [%]","% inhibition 1 µg/ml, N = 1 (HUVEC proliferation on coated DLL4) [1] [%]","% inhibition 1 µg/ml, N = 2 (HUVEC proliferation on coated DLL4) [1] [%]","% inhibition 10 µg/ml, AVERAGE (HUVEC proliferation on coated DLL4) [1] [%]","% inhibition 10 µg/ml, N = 1 (HUVEC proliferation on coated DLL4) [1] [%]","% inhibition 10 µg/ml, N = 2 (HUVEC proliferation on coated DLL4) [1] [%]",Jagged1/293T X Geo mean (human Jagged1),Dll1/mock ratio (human Dll1),Kd [2] [nM],koff [2] [s⁻¹],kon [2] [M⁻¹ s⁻¹],% inhibition at 0.020 nM (full length human DLL4 [3]) [%],% inhibition at 0.070 nM (full length human DLL4 [3]) [%],% inhibition at 0.21 nM (full length human DLL4 [3]) [%],% inhibition at 0.62 nM (full length human DLL4 [3]) [%],% inhibition at 1.9 nM (full length human DLL4 [3]) [%],% inhibition at 5.6 nM (full length human DLL4 [3]) [%],% inhibition at 16.7 nM (full length human DLL4 [3]) [%],IC50 (full length human DLL4 [3]) [nM],Mean % inhibition (full length human DLL4 [4]) [%],further results
"21H3 (antibody, IgG4, V domains shown, Fully human; used for IgG4 rows and where no isotype is printed; also called 21H3 IgG4) VH: QVQLVQSGAEVKKPGASVKVSCKASGYTFTNYGITWVRQAPGQGPEWMGWISAYNGNTNYAQKLQDRVTVTTDTSTSTAYMELRSLRSDDTAVYYCARDRVPRIPVTTEAFDIWGQGTMVTVSS VL: QSVLTQPPSASGTPGQRVTISCSGSSSNIGSYFVYWYQQLPGTAPKLLIYRNNQRPSGVPDRFSGSESGTSASLAISGLRSEDEADYYCAAWDDSLSGHWVFGGGTRLTVL",93,86,99,89,88,89,15.5,1.16,0.481,0.000152,317000,-17,-2,25,9,68,115,124,1.73,–,–
"2H10 (antibody, IgG4, V domains shown, Fully human; used for IgG4 rows and where no isotype is printed; also called 2H10 IgG4) VH: QVQLVESGGGVVQPGRSLRLSCAASGFTFSRHGMHWVRQAPGKGLEWVAVVWFDGSNIYYADSVKGRFTISRDNSKNTLYLQMNSLRAEDTAMYYCARDSRIAAADYWGQGTLVTVSS VL: SYELTQPPSVSVSPGQTVSITCSGDKLGDKYVCWYQQKPGQSPVLVIYQESKRPSGIPERFSGSSSGNTATLTISGTQAMDEADYYCQTWDSSLVVFGGGTKLTVL",93,98,87,103,110,95,9.28,1.1,0.981,4.02e-05,40900,6,-3,14,27,45,119,111,2.05,127,% inhibition n = 1 (full length human DLL4 [4]): 107%; % inhibition n = 2 (full length human DLL4 [4]): 150%; % inhibition n = 3 (full length human DLL4 [4]): 124%
"9G8 (antibody, IgG4, V domains shown, Fully human; used for IgG4 rows and where no isotype is printed; also called 9G8 IgG4) VH: QLQLQESGPGLVKPSETLSLSCTVSGGSISSSSSYWGLIRQPPGKGLEWIGSIYYSGSTYYSPSLKSRVSISVDTSKNQFSLKLSSVTAADTAVYFCARQGYGGHPDVFDIWGQGTMVTVSS VL: SSELTQSPSVSVSPGQTARITCSGDKLGDVYVCWYQQKTGQSPVLVIYEDTKRPSGIPERFSGSNSGNTATLTISGTQVMDEADYYCQAWDSTTAVIFGGGTKLTVL",62,52,71,77,72,82,17.4,1.23,0.132,1.36e-05,103000,10,14,33,22,68,125,121,1.88,118,% inhibition n = 1 (full length human DLL4 [4]): 112%; % inhibition n = 2 (full length human DLL4 [4]): 98%; % inhibition n = 3 (full length human DLL4 [4]): 143%
"4B4 (antibody, IgG4, V domains shown, Fully human; used for IgG4 rows and where no isotype is printed; also called 4B4 IgG4; 4B4.1) VH: QVLLIQSGAEVKKPGASVQVSCKASGYTFTNYGVIWVRQAPGQGLEYMGWISAYNGNTNYAQKLQDRVTMTSDTSTTTAYMELRSLRSDDTAVYYCARELGSSFDYWGQGTLVTVSS VL: SYELTQPPSVSVSPGQTARITCSGDALPKKYAYWYQQKSGQAPVLVIYEDIKRPSGIPERFSGSSSGTMATLTISGAQVEDEADYYCFSTDNSGDHSVFGGGTKLTVL",93,101,84,97,102,92,16.8,1.23,0.283,3.33e-05,118000,14,21,23,65,95,127,136,0.72,121,–
